Where “and” joins values, the source holds several entries; their conditions need not be identical. Equal values may be shown once. Read-outs that look alike come from different tables or passages of the source.
Key:
[1] = target: SARS-COV-2 spike protein (Wuhan) expressed on transfected cells (SARS-CoV-2 (Wuhan), UniProt P0DTC2 14-1273)
[2] = target: T1, SARS-COV-2 spike (614G-del18) (SARS-CoV-2, UniProt P0DTC2 14-1255)
[3] = target: T1, SARS-COV-2 spike (614G-del18); experiment: cell-based or functional assay
[4] = target: T1, SARS-COV-2 spike (614G-del18); experiment: flow cytometry, transfected HEK cells, MFI GFP+/GFP- cells [1/3]
[5] = target: T1, SARS-COV-2 spike (614G-del18); experiment: flow cytometry, transfected HEK cells, MFI GFP+/GFP- cells [3/3]
[6] = target: T1, SARS-COV-2 spike (614G-del18); experiment: flow cytometry, transfected HEK cells, MFI GFP+/GFP- cells [2/3]
[7] = target: T1, SARS-COV-2 spike (614G-del18); remark: listed apart in the source
[8] = target: SARS-COV-2 Omicron XBB spike (pCG1, del18) (SARS-CoV-2 Omicron XBB, UniProt P0DTC2 14-1255); experiment: cell-based or functional assay
[9] = target: SARS-COV-2 Omicron BA.2 spike (pCG1, del18) (SARS-CoV-2 Omicron BA.2, UniProt P0DTC2 14-1255); experiment: cell-based or functional assay
[10] = target: SARS-COV-2 Omicron BA.2.75 spike (pCG1, del18) (SARS-CoV-2 Omicron BA.2.75, UniProt P0DTC2 14-1255); experiment: cell-based or functional assay
[11] = target: SARS-COV-2 Omicron BA.1 spike (pCG1, del18) (SARS-CoV-2 Omicron BA.1, UniProt P0DTC2 14-1255); experiment: cell-based or functional assay
[12] = target: SARS-COV-2 Omicron BQ.1.1 spike (pCG1, del18) (SARS-CoV-2 Omicron BQ.1.1, UniProt P0DTC2 14-1255); experiment: cell-based or functional assay
[13] = target: SARS-COV-2 Omicron BA.4.6 spike (pCG1, del18) (SARS-CoV-2 Omicron BA.4.6, UniProt P0DTC2 14-1255); experiment: cell-based or functional assay

B1: VHH R3_DC23 (VHH)
VHH: QVQLQESGGGLVQAGDSLTLSCAVSGRIFSTYTMGWFRQAPGKEREFVAAVRWGAGTIYYADSMKGRFTISRDSAKNTVDLQMNSTKPEDTAVYYCGAAYVSKANYGSLWYQDSRRYDYWGQGTQVTVSS
[1]
  EC50 (read off the curve): ~10 ng/mL
[2]
  EC50 (read off the curve): ~10 ng/mL
[3]
  IC50, neutralisation of VSV pseudotyped with spike, Vero E6 cells: < 1 ng/mL
  IC50, neutralisation of VSV spike pseudotypes: 1.2 ng/ml and 80 µM and ~1 ng/ml

B2: VHH R4_DC6 (VHH)
VHH: QVQLQESGGGLVQAGDSLRLSCAASGRILSTFTMGWFRQAPGKEREFVAAMRWNGGTKNYADSVKGRFTISRDNANSVVYLQMNSTKPEDTAVYYCAAAYVSKANYGSLWYRTPSLYDYWGQGTQVTVSS
[2]
  EC50 (read off the curve): ~2 ng/mL

B3: VHH R3_C4 (VHH)
VHH: QVQLQESGGGLVQAGDSLRLSCAVSGRPFSTYTMGWFRQAPGKEREFVAAMRWSGGTIYYADSVKGRFTISRDNDKNTVNLEMNSLKPEDTAVYYCAAAYVSKANYGSLWYRASGLYDYWGQGTQVTVSS
[4]
  binding result: binds

B4: VHH R4_DC16 (VHH)
VHH: QVQLQESGGGLVQAGDSLRLSCAVSGRPFSTYTMGWFRQAPGKEREFVAAMRWSGGTIYYADSVKGRFTISRDNAQNTVNLQMNSLKPEDTAVYYCAAAYVSKANYGSSWYRNSGLYDYWGQGTQVTVSS
[5]
  binding result: binds

B5: VHH R3_DC20 (VHH)
VHH: QVQLQESGGGLVQAGDSLRLSCAVSGRPFSTYTMGWFRQAPGKEREFVAAMRWSGGTIYYADSVKGRFTISRDNAQNTVNLQMNSLEPEDTAVYYCAAAYVSKANYGSLWYRNSGLYDYWGQGTQVTVSS
[4]
  binding result: binds

B6: VHH R4_DC20 (VHH)
VHH: QVQLQESGGGLVQTGDSLRLSCAVSGRPFSTYTMGWFRQAPGKEREFVASMRWSGGTMNYADSVKGRFTISRDNDQNTVNLQMNSLKPEDTAVYYCAAAYVSKANYGSLWYRNSGLYDYWGQGTQVTVSS
[5]
  binding result: binds

B7: VHH R3_DC9 (VHH)
VHH: QVQLQESGGGLVQTGDSLRLSCAVSGRPFSTYTMGWFRQAPGKEREFVASMRWSGGTMYYSDSVKGRFTISRDNDKNTVNLQMNSLKPEDTAVYYCAAAYVSKANYGSLWYRNSGLYDYWGQGTQVTVSS
[4]
  binding result: binds

B8: VHH R4_DC13 (VHH)
VHH: QVQLQESGGGLVQTGDSLRLSCAVSGRPFSTYTMGWFRQAPGKEREFVASMRWSGGTVYYSDSVKGRFTISRDNDKNTVNLQMNNLKPEDTAVYYCAAAYVSKANYGSFWYRNSDLYDYWGQGTQVTVSS
[6]
  binding result: binds

B9: VHH R4_DC9 (VHH)
VHH: QVQLQESGGGLVQAGDSLRLSCAASGRIFSTYTMGWFRQAPGMEREFVAAIRWSGSTVYYADSVKGRFTISRDNAKNTVYLQMNSLKPEDTAVYYCAAARVSKANYGTLWYRASGLYDYWGQGTQVTVSS
[3]
  IC50, neutralisation of VSV pseudotyped with spike, Vero E6 cells: ~100 ng/mL
  IC50, neutralisation of VSV spike pseudotypes: 68.9 ng/ml and 4680 µM

B10: VHH R3_DC2 (VHH)
VHH: QVQLQESGGGLVQTGDSLRLSCAVSGRPFSTYTMGWFRQAPGKEREFVASMRWSGGTKYYSDSVKGRFSISRDNDQNTVNLQMNSLKPEDTAVYYCAAAYVSKANYGSLWYRNSGLYDYWGQGTQVTVSS
[4]
  binding result: binds

B11: R3_DC23-Fc(YTE) (Fc fusion)
chain: DVQLVESGGGLVQPGGSLRLSCAVSGRIFSTYTMGWFRQAPGKEREFVAAVRWGAGTIYYADSVKGRFTISRDNAKNTVYLQMNSLRPEDTAVYYCGAAYVSKANYGSLWYQDSRRYDYWGQGTLVTVSSGGGGSGGGGSDKTHTCPPCPAPELLGGPSVFLFPPKPKDTLYITREPEVTCVVVDVSHEDPEVKFNWYVDGVEVHNAKTKPREEQYNSTYRVVSVLTVLHQDWLNGKEYKCKVSNKALPAPIEKTISKAKGQPREPQVYTLPPSRDELTKNQVSLTCLVKGFYPSDIAVEWESNGQPENNYKTTPPVLDSDGSFFLYSKLTVDKSRWQQGNVFSCSVMHEALHNHYTQKSLSLSPG
[7]
  EC50 (read off the curve): ~100 ng/mL
[8]
  IC50, neutralisation of VSV pseudotyped with spike: ~1 ng/mL
[9]
  EC50, neutralisation of VSV pseudotyped with spike: 0.35 ng/mL
  IC50, neutralisation of VSV pseudotyped with spike: ~1 ng/mL
[3]
  EC50, neutralisation of VSV pseudotyped with spike: 1 ng/mL
[10]
  IC50, neutralisation of VSV pseudotyped with spike: ~1 ng/mL
[11]
  EC50, neutralisation of VSV pseudotyped with spike: 1 ng/mL
  IC50, neutralisation of VSV pseudotyped with spike: ~1 ng/mL
[12]
  IC50, neutralisation of VSV pseudotyped with spike: ~1 ng/mL
[13]
  IC50, neutralisation of VSV pseudotyped with spike: ~1 ng/mL
